Consider two molecules from doi:10.1101/2024.12.02.626350 (bioRxiv, 2024).

The chains are these.
B2: nicotinic acetylcholine receptor (nAChR) β subunit, muscle-type, Torpedo (natural protein)
chain: SVMEDTLLSVLFETYNPKVRPAQTVGDKVTVRVGLTLTNLLILNEKIEEMTTNVFLNLAWTDYRLQWDPAAYEGIKDLRIPSSDVWQPDIVLMNNNDGSFEITLHVNVLVQHTGAVSWQPSAIYRSSCTIKVMYFPFDWQNCTMVFKSYTYDTSEVTLQHALDAKGEREVKEIVINKDAFTENGQWSIEHKPSRKNWRSDDPSYEDVTFYLIIQRKPLFYIVYTIIPCILISILAILVFYLPPDAGEKMSLSISALLAVTVFLLLLADKVPETSLSVPIIIRYLMFIMILVAFSVILSVVVLNLHHRSPNTHTMPNWIRQIFIETLPPFLWIQRPVTTPSPDSKPTIISRANDEYFIRKPAGDFVCPVDNARVAVQPERLFSEMKWHLNGLTQPVTLPQDLKEAVEAIKYIAEQLESASEFDDLKKDWQYVAMVADRLFLYVFFVICSIGTFSIFLDASHNVPPDNPFA

For test [1], the target named is B2. Description: cryo-EM structure.
For test [2], the target named is T1, nicotinic acetylcholine receptor (nAChR) δ subunit, muscle-type, Torpedo (Tetronarce californica, UniProt P02718 22-522).
T1 sequence: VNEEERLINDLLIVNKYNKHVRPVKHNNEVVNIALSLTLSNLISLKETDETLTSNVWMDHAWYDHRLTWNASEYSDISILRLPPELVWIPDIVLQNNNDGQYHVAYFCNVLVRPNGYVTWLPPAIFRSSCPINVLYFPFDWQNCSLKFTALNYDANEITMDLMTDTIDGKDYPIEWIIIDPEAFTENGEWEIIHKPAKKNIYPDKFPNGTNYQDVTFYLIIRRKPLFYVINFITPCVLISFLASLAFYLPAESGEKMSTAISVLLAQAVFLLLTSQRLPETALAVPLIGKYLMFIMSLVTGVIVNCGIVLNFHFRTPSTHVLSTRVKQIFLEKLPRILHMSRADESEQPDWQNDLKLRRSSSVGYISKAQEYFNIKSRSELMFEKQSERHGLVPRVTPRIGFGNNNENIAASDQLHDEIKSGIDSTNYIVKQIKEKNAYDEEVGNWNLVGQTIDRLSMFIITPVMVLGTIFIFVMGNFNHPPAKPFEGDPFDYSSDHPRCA
Description: cryo-EM structure.

B1: nicotinic acetylcholine receptor (nAChR) α subunit, muscle-type, Torpedo (natural protein)
chain: SEHETRLVANLLENYNKVIRPVEHHTHFVDITVGLQLIQLISVDEVNQIVETNVRLRQQWIDVRLRWNPADYGGIKKIRLPSDDVWLPDLVLYNNADGDFAIVHMTKLLLDYTGKIMWTPPAIFKSYCEIIVTHFPFDQQNCTMKLGIWTYDGTKVSISPESDRPDLSTFMESGEWVMKDYRGWKHWVYYTCCPDTPYLDITYHFIMQRIPLYFVVNVIIPCLLFSFLTGLVFYLPTDSGEKMTLSISVLLSLTVFLLVIVELIPSTSSAVPLIGKYMLFTMIFVISSIIITVVVINTHHRSPSTHTMPQWVRKIFIDTIPNVMFFSTMKRASKEKQENKIFADDIDISDISGKQVTGEVIFQTPLIKNPDVKSAIEGVKYIAEHMKSDEESSNAAEEWKYVAMVIDHILLCVFMLICIIGTVSVFAGRLIELSQEG
Take B1: in test [1], the binding result is “binds”.

Consider B2, for which the binding result in test [2] is reported as “binds”.
